Data as given in paper PMC12381585.

T1: endogenous 14-3-3ζ (YWHAZ) in A549 cells (human (endogenous in A549)), P63104
T1 chain: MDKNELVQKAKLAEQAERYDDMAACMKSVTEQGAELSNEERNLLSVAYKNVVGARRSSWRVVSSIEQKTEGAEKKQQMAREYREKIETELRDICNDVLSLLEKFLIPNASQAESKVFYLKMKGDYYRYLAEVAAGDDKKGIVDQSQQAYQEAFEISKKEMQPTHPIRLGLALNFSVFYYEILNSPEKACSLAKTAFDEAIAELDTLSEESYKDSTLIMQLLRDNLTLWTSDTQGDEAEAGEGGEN

T2: purified recombinant 14-3-3ζ, P63104
T2 chain: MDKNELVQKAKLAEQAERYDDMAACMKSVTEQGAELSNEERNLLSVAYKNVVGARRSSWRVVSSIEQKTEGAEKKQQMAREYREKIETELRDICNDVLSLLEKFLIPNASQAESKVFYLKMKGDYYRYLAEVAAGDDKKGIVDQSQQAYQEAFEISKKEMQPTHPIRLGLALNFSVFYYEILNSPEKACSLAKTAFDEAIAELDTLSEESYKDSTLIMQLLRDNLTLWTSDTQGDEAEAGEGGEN


Legend:
Details in all cases: remark: other sources report otherwise
[1] = biological target: T1, endogenous 14-3-3ζ (YWHAZ) in A549 …; assay: native gel or EMSA
[2] = biological target: T1, endogenous 14-3-3ζ (YWHAZ) in A549 …; assay: cross-linking
[3] = biological target: T2, purified recombinant 14-3-3ζ, P63104; assay: cross-linking

| stoichiometry N [1] | stoichiometry N [2] | stoichiometry N [3] | Binder |
| --- | --- | --- | --- |
| 2 | 2 | – | endogenous 14-3-3ζ (YWHAZ) in A549 cells, P63104 1-245 (natural protein) MDKNELVQKAKLAEQAERYDDMAACMKSVTEQGAELSNEERNLLSVAYKNVVGARRSSWRVVSSIEQKTEGAEKKQQMAREYREKIETELRDICNDVLSLLEKFLIPNASQAESKVFYLKMKGDYYRYLAEVAAGDDKKGIVDQSQQAYQEAFEISKKEMQPTHPIRLGLALNFSVFYYEILNSPEKACSLAKTAFDEAIAELDTLSEESYKDSTLIMQLLRDNLTLWTSDTQGDEAEAGEGGEN |
| – | – | 2 | purified recombinant 14-3-3ζ, P63104 1-245 (natural protein) MDKNELVQKAKLAEQAERYDDMAACMKSVTEQGAELSNEERNLLSVAYKNVVGARRSSWRVVSSIEQKTEGAEKKQQMAREYREKIETELRDICNDVLSLLEKFLIPNASQAESKVFYLKMKGDYYRYLAEVAAGDDKKGIVDQSQQAYQEAFEISKKEMQPTHPIRLGLALNFSVFYYEILNSPEKACSLAKTAFDEAIAELDTLSEESYKDSTLIMQLLRDNLTLWTSDTQGDEAEAGEGGEN |
